The source of these data is patent publication US20240209076A1 (KODIAK SCIENCES, published 2024).

As a reminder, the IC50 is the concentration needed to halve the response being measured. The kon is the rate constant with which the complex forms. The koff is the first-order rate constant of dissociation. Usually Kd stands for the equilibrium constant for the complex coming apart.

Assay [1] addresses T1, recombinant human IL-6 (human, UniProt P05231 30-212). Briefly: IL-6/IL-6R competitive ELISA as in example 3. The method, then:
The plate was blocked in 2% bovine serum albumin (BSA) in PBS-Tween (PBST) for 2 hours. […] This mixture was then added to the ELISA plate following a wash step.
Background: ELISA stands for enzyme-linked immunosorbent assay.

The target of assay [2] is VEGF (UniProt P15692-4 27-191, limits assumed). Briefly: cell-based or functional assay.
Target sequence in this assay (P15692 other isoform, or with tags, fused parts or gaps limits assumed): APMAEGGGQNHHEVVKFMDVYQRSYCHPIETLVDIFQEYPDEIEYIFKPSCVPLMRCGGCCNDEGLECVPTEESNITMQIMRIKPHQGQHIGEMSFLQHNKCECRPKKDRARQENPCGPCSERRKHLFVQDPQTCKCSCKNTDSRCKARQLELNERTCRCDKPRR
Assay [3] deals with T2, biotinylated VEGF (R&D Systems) (UniProt P15692-4 27-191, limits assumed, biotinylated).
T2 construct: also called btVEGF; bt-VEGF
T2 sequence (P15692 other isoform, or with tags, fused parts or gaps limits assumed): as above
Briefly: VEGF/VEGFR competitive ELISA as in example 3. On the procedure:
The plate was blocked in 2% bovine serum albumin (BSA) in PBS-Tween (PBST) for 2 hours.
This assay was performed as described in example 3.

Assay [4] has as its target T3, human IL-6 (human, UniProt P05231 30-212). Briefly: KinExA 3200, kinetic measurement, 37 C. (In general: Kinetic exclusion samples the free partner from a solution-phase mixture.)
The target of assay [5] is T4, VEGF (UniProt P15692-4 27-191, limits assumed).
T4 construct: also called VEGF-A
Briefly: KinExA 3200, calculated as Kd x kon, 37 C.
T4 sequence (P15692 other isoform, or with tags, fused parts or gaps limits assumed): as above

Assay [6] addresses T3, human IL-6. Briefly: KinExA 3200, in solution, 37 C.
Assay [7] has as its target T4, VEGF. Briefly: KinExA 3200, in solution, 37 C.
The target in assay [8] is T3, human IL-6. Briefly: KinExA 3200, calculated as Kd x kon, 37 C.
Assay [9] concerns the target T4, VEGF. Briefly: KinExA 3200, kinetic measurement, 37 C.
Assay [10] deals with T1, recombinant human IL-6. Briefly: SPR, antibody captured on Protein A, IL-6 as analyte. The method, then:
Antibodies were captured on a Protein A chip (GE) by injecting 1:20 dilution of cell supernatant at 10 μL/min for 60 seconds. […] The sensor chip was regenerated by a 60 seconds injection of 10 mM Glycine pH 1.7 at flow rate of 50 μL/min. […] For this setup, 1 μg/mL of purified antibody was injected over a Protein A chip at 10 μL/min for 25-28 seconds. Data analysis for supernatant and purified samples were performed using BIAevaluation software (GE). All sensorgrams were double reference subtracted and fit using a 1:1 Langmuir binding model.
(In general: Surface plasmon resonance follows binding to a sensor surface in real time, without labels.)

T3 sequence (P05231 30-212 limits assumed): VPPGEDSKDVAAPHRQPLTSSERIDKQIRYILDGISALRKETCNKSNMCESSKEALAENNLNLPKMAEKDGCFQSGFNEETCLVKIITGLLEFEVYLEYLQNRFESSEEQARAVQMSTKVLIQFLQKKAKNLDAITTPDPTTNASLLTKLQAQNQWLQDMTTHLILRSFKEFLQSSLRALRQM
T1 sequence (P05231 30-212 limits assumed): as above

B1: VEGFR-AntiIL6-OG1802 (other)
heavy: SDTGRPFVEMYSEIPEIIHMTEGRELVIPCRVTSPNITVTLKKFPLDTLIPDGKRIIWDSRKGFIISNATYKEIGLLTCEATVNGHLYKTNYLTHRQTNTIIDVVLSPSHGIELSVGEKLVLNCTARTELNVGIDFNWEYPSSKHQHKKLVNRDLKTQSGSEMKKFLSTLTIDGVTRSDQGLYTCAASSGLMTKKNSTFVRVHEKGGGGSGGGGSEVQLVESGGGLVQPGGSLRLSCAASGFTFSPFAMHWVRQAPGKGLEWVAKISPGGSWTYYSDTVTDRFTFSLDTSKSTAYLQMNSLRAEDTAVYYCARQAWGYYALDIWGQGTLVTVSSASTKGPSVFPLAPSSKSTSGGTAALGCLVKDYFPEPVTVSWNSGALTSGVHTFPAVLQSSGLYSLSSVVTVPSSSLGTQTYICNVNHKPSNTKVDKKVEPKSCDKTHTCPPCPAPEAAGAPSVFLFPPKPKDTLMISRTPEVTCVVVDVSHEDPEVKFNWYVDGVEVHNAKTKPREEQYNSTYRVVSVLTVLHQDWLNGKEYKCKVSNKALPAPIEKTISKAKGQPREPQVYTLPPSREEMTKNQVSLTCLVKGFYPSDIAVEWESNGQPENNYKTTPPVLDSDGSFFLYSKLTVDKSRWQQGNVFSCSVMHEALHNHYTQKSLSCSPGK
light: DIQLTQSPSSLSASVGDRVTITCSASISVSYLYWYQQKPGKAPKLLIYDDSSLASGVPSRFSGSGSGTDFTLTISSLQPEDFATYYCQQWSGYPYTFGQGTKVEIKRTVAAPSVFIFPPSDEQLKSGTASVVCLLNNFYPREAKVQWKVDNALQSGNSQESVTEQDSKDSTYSLSSTLTLSKADYEKHKVYACEVTHQGLSSPVTKSFNRGEC
modifications: OG1802 phosphorylcholine polymer (about 794 kDa) on Cys L443C (EU numbering; 660C in SEQ ID NO: 170) by maleimide-cysteine chemistry, one polymer per molecule
notes: also called bioconjugate
With B1, the half-inhibitory concentration (IC50) in the assay with recombinant human IL-6 [1] is 0.23 nM; in assay [3] it was 0.99 nM. Besides, the “cell based VEGF stimulated VEGFR reporter assay, average IC50” value with VEGF [2] was found to be 0.35 nM.

B2: VEGFR-AntiIL6 (FIG. 27) (other)
heavy: B1 heavy
light: B1 light
On to B2, for which the concentration for half-maximal inhibition (IC50) came out at 0.26 nM in the assay with recombinant human IL-6 [1] and 1.98 nM in [3]. Moreover, the “cell based VEGF stimulated VEGFR reporter assay, average IC50” value with VEGF [2] came out at 0.51 nM.

B3: VEGFR-AntiIL6-OG1802 (other)
heavy: B1 heavy
light: B1 light
modifications: OG1802 phosphorylcholine biopolymer (about 794 kDa) on Cys L443C (EU numbering; 660C in SEQ ID NO: 170) by maleimide; one polymer per molecule
notes: Polymer conjugate of m3; also called VEGFR-AntiIL6 bioconjugate
With B3, the on-rate (kon) with human IL-6 [4] was 8e+06 M⁻¹ s⁻¹; with VEGF [9] it was 3.75e+06 M⁻¹ s⁻¹. The koff with VEGF [5] was 3.83e-06 s⁻¹; with human IL-6 [8] it was 9.66e-05 s⁻¹. For the same molecule, the dissociation constant Kd in the assay with human IL-6 [6] turned out to be 0.0121 nM; in the assay with VEGF [7], 0.00102 nM.

B4: anti-IL-6 antibody, heavy chain G66D, light chain wild-type (antibody, human IgG1, V domains shown)
VH: EVQLVESGGGLVQPGGSLRLSCAASGFTFSPFAMSWVRQAPGKGLEWVAKISPGGSWTYYSDTVTDRFTFSLDTSKSTAYLQMNSLRAEDTAVYYCARQLWGYYALDIWGQGTLVTVSS
VL: DIQLTQSPSSLSASVGDRVTITCSASISVSYMYWYQQKPGKAPKLLIYDMSNLASGVPSRFSGSGSGTDFTLTISSLQPEDFATYYCMQWSGYPYTFGQGTKVEIK
notes: see m23; engineered human IgG1
For B4, the “fold decrease in KD relative to wild-type” value with recombinant human IL-6 [10] is roughly 2 fold.
